Assay results published in paper PMC4506714.

Key:
SSB = SSB (E. coli, UniProt P0AGE0 1-178); assay: EMSA
RPA (RPA70-RPA32-RPA14) = RPA (RPA70-RPA32-RPA14) (UniProt P27694;P15927;P35244 1-616;1-270;1-121); assay: EMSA
Sequence of RPA (RPA70-RPA32-RPA14) (P27694 whole entry, chain 1 of 3): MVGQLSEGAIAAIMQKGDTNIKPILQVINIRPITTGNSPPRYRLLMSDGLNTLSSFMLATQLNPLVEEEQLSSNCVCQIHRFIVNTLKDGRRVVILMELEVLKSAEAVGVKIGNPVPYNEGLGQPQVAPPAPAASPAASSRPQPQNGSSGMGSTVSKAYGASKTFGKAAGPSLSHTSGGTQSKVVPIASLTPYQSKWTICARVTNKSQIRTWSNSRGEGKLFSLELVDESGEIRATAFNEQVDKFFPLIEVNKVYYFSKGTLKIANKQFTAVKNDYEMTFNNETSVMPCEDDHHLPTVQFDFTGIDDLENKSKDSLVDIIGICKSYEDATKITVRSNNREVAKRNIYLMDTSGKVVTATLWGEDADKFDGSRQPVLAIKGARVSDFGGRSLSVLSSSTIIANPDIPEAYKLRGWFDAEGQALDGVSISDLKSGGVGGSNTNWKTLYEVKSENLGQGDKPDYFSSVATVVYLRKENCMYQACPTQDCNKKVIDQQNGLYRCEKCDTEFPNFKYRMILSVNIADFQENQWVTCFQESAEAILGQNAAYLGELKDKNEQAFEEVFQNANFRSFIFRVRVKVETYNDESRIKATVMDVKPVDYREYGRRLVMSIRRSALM
Sequence of RPA (RPA70-RPA32-RPA14) (P15927 whole entry, chain 2 of 3): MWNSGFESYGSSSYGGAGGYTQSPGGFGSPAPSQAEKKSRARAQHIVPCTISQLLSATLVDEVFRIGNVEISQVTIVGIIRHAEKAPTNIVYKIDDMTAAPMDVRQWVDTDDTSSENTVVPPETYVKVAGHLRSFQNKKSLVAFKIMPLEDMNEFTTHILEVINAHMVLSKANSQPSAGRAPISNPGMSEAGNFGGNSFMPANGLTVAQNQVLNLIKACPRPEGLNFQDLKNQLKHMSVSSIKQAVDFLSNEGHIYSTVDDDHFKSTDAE
Sequence of RPA (RPA70-RPA32-RPA14) (P35244 whole entry, chain 3 of 3): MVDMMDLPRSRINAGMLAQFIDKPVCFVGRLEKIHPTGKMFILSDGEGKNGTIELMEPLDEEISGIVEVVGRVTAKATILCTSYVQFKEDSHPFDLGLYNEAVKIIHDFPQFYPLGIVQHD

Sequence of SSB (P0AGE0 whole entry): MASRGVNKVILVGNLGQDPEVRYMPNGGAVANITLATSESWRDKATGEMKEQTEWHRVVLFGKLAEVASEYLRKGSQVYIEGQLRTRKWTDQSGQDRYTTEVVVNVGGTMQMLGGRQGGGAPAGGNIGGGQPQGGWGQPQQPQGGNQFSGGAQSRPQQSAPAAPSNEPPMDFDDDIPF

TTTTTTTTTTTTTTTTTTTTTTTTTTTTTT (ssDNA) [dT30]
binding result (SSB): binds | binding result (RPA (RPA70-RPA32-RPA14)): binds
